Experimental data from paper PMC6561087 (Nature, 2019).

T1: IFNγR1, wild type, recombinant soluble receptor captured on the SPR chip (UniProt P15260 18-245)
T1 sequence (looked up): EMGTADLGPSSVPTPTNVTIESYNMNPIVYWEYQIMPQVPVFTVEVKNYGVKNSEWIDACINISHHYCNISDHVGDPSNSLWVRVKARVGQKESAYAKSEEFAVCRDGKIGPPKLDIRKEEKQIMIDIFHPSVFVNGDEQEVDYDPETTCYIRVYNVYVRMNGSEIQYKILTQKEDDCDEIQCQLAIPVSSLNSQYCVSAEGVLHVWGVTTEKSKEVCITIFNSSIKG

B1: IFNγ(K74A/E75Y/N83R) triple mutant (ligand)
chain: QDPYVKEAENLKKYFNAGHSDVADNGTLFLGILKNWKEESDRKIMQSQIVSFYFKLFKNFKDDQSIQKSVETIAYDMNVKFFRSNKKKRDDFEKLTNYSVTDLNVQRKAIHELIQVMAELSPAAKTGKRKRSQ
B2: IFNγR2, wild type, recombinant soluble receptor (receptor)
chain: SQLPAPQHPKIRLYNAEQVLSWEPVALSNSTRPVVYQVQFKYTDSKWFTADIMSIGVNCTQITATECDFTAASPSAGFPMDFNVTLRLRAELGALHSAWVTMPWFQHYRNVTVGPPENIEVTPGEGSLIIRFSSPFDIADTSTAFFCYYVHYWEKGGIQQVKGPFRSNSISLDNLKPSRVYCLQVQAQLLWNKSNIFRVGHLSNISCYETMADASTELQQ

Legend:
[1] = molecular target: T1, IFNγR1, wild type, recombinant soluble …; assay: SPR
[2] = molecular target: 2:2 IFNγ–IFNγR1 intermediate complex (wild type), formed on the SPR chip (UniProt P15260); assay: SPR

Binder	binding result [1]	Kd [2]
B1	binds	
B2		5 µM
